2 molecules from paper PMC11285730 (Open Biology, 2024) can be followed below.

In the experiment the target is SARS-CoV-2 Wuhan RBD, de-glycosylated (SARS-CoV-2, UniProt P0DTC2). Nature of the experiment: crystal structure. The following applies: both partners purified.

B1: A8 monomer (VHH)
VHH: QVQLVESGGGLVQAGGSLRLSCAASGGTFSTAAMGWFRQAPGEERECVASIGWRGVRTWYADSVKGRFTISRDNPQNTVYLQMNNLKSGDTAVYYCAASVGNYGLPWAHFEYDFWGQGIQVTVSS
In the case of B1, the binding result is recorded as “binds”.

B2: B5-5 monomer (VHH)
VHH: QVQLVESGGGLVQPGGSLRLSCAVFGSTLDNYSVGWFRQLPGKEREGLACFSRRYGAPYYADSAKDRFTISRDNAKNTVDLQLNGLKPEDTAVYYCATRSGPYCTTSVSDFDDWGRGTQVTVSS
As for B2, the binding result is “binds”.
